Experimental data taken from patent publication US7193044B1, “Compounds and methods for regulating apoptosis, and methods of making and screening for compounds that regulate apoptosis” (Immunogen, Inc., priority 2000, dated 2007).

Columns and labels:
[1] = test system: BAD Ser155 phosphorylation in HeLa cells; assay: BAD phosphorylation in HeLa cells (western blot band-shift / anti-phospho-Ser155 antibody); assay type: cell-based, human; details: HeLa cells
Experimental: A mammalian expression vector encoding mutant HA-BAD S155A, derived from the shorter murine BAD of SEQ ID NO:3, was constructed. HA-BAD S155A has an amino acid sequence wherein the serine at a position corresponding to Ser155 is substituted with alanine. A western blot was performed on WCL prepared from cells expressing the shorter murine BAD (SEQ ID NO:3), HA-BAD S112A, HA-BAD S136A, or HA-BAD S155A, and probed with anti-HA antibody.
A western blot analysis, probed with anti-HA antibody, was performed on lysates produced from the Forskolin treated and untreated (control) cells to determine whether Forskolin could induce the phosphorylation BAD or mutant BAD.
HeLa cells transiently expressing HA-BAD, HA-BAD S155A, HA-BAD S112A/S136A, or HA-BAD S112A/S136A/S155A were treated with Forskolin or a buffer control.
The HA-BAD S112A/S136A double mutant was transiently expressed in HeLa cells, and transfected cell cultures were treated with each of the GPCR ligands, individually and as a group. A western blot analysis, probed with anti-HA antibody, was performed on lysates produced from the treated and untreated (negative control) cells. […] Forskolin (FK) and no treatment (−) were positive and negative controls, respectively (FIG. 6(a), […], respectively).
Non-transfected HeLa cells were treated with Forskolin or L-epinephrine, followed by western blot analysis of cell lysates using anti-BAD antibodies.
Transformants were treated with L-epinephrine, then lysed and subjected to anti-HA western blot analysis.
To further test whether phosphorylation of Ser155 is dependent on the PI 3-kinase/Akt pathway, HeLa cells were transfected with the mutant HA-BAD S155A and pretreated with Wortmannin, an inhibitor of PI 3-kinase. These cells were then stimulated with epidermal growth factor (EGF), lysed and analyzed by western blot analysis.
For immunoprecipitation of all HA-BAD species, 1 μg of the anti-HA antibody was added to the cell lysates, and incubated at 4° C. for one hour. Protein G agarose (Pierce) was then added (50 μl/fraction of 50% slurry) and followed by a one hour incubation at 4° C. Beads were washed with RIPA buffer, boiled in loading buffer (2% SDS, 10% glycerol, 5% β-ME, 60 mM Tris, pH 6.8, 0.002% Bromophenol Blue) and loaded onto polyacrylamide gels. After electrophoresis, proteins were transferred to nitrocellulose membranes, and blots blocked in western wash buffer (40 mM Tris, pH 8.0, 150 mM NaCl, 0.2% NP-40) with 5% BSA for one hour at room temperature. Blots were incubated with primary antibody diluted in western wash buffer with 3% BSA at room temperature for 1–2 hours, washed with western wash buffer and incubated with secondary HRP-coupled antibody diluted in western wash buffer with 1.5% BSA, and washed extensively. Polypeptides were detected with the ECL chemiluminescence according to the manufacturers instructions (Amersham).

[2] = target: T1, PKA (catalytic subunit from bovine heart) (Bos taurus, UniProt P00517); assay: In vitro kinase assay, phosphorylation of BAD and BAD mutants by PKA; assay type: biochemical; details: 35S-labeled in vitro translated protein
T1 construct: 11 units PKA (catalytic subunit from bovine heart, Calbiochem); purchased Calbiochem; host or cells: bovine heart
Experimental: The ability of full-length BAD and mutant BAD S155A to bind Bcl-XL was also determined (FIG. 3(c)). Full-length BAD (“WT”) and mutant BAD S155A (“S155A”) were produced by in vitro translation and labeled with ^35S-methionine therein. The labeled proteins were then incubated with PKA (“+”) in the presence of unlabeled ATP or a buffer control (“−”). Following the kinase reactions, aliquots of each sample of the four samples were incubated with either GST or GST-Bcl-XL. The protein complex were captured on glutathione-agarose beads. Proteins bound to the beads (“Bound”) (lower panel) and samples of the reactions collected prior to incubation with the beads (“Total”) (upper panel) were analyzed by SDS-PAGE followed by autoradiography.
The GST-tagged BAD and BAD mutants were then expressed individually in cells and the purified GST-tagged polypeptides incubated with purified PKA, in the presence of ^32P radiolabel. A western blot, probed with anti-BAD antibody, was performed on the incubated GST-tagged BAD and BAD mutants to determine whether PKA could phosphorylate the BAD and/or mutant BAD in vitro. The GST-tagged BAD and BAD mutants phosphorylated by PKA could be detected directly by autoradiography due to the incorporation of ^32P radiolabel when the polypeptides were phosphorylated (FIG. 4, upper panel), whereas the total amount of BAD and mutant BAD present in the in vitro reaction was detected by the anti-BAD antibody probe (FIG. 4, lower panel).
In vitro kinase assays were carried out in 30 μl volumes containing 10 mM HEPES buffer, pH 7.5, 100 mM NaCl, 12 mM MgCl2, 1 mM dithiothreitol, […] γ^32P-ATP ([…], NEN), 11 units PKA (catalytic subunit from bovine heart, Calbiochem), and 1 μg purified GST-BAD. Reactions were incubated for 30 min at 30° C. and terminated by the addition of SDS-PAGE sample buffer. Samples were run on a 4–20% SDS-PAGE gel (Novex), transferred to a nitrocellulose membrane and phosphorylated GST-BAD was visualized by autoradiography. To verify that equal amounts of GST-BAD substrates were used, the nitrocellulose was subjected to western blot analysis with 133 ng/ml anti-BAD antibody (C-20).

[3] = test system: HeLa cells; assay: Beta-gal ELISA apoptosis assay in transfected HeLa cells; assay type: cell-based, human; details: in the presence of Forskolin after 24 hours
Experimental: Because BAD Ser155 phosphorylation, like Ser136 phosphorylation, prevents BAD from binding to Bcl-XL (FIG. 1), it was possible that by analogy, Ser155 dephosphorylation promotes cell death. To test this idea, HeLa cells were co-transfected with BAD or various BAD serine mutants and a β-gal reporter plasmid. Twenty-four hours post-transfection, cell viability was analyzed by β-gal ELISA.
To test this idea, HeLa cells were again co-transfected with BAD or various BAD serine mutants and a β-gal reporter plasmid. Forskolin was then added to half of the cultures while the other half was left untreated. Beta-gal ELISAs were performed 24 hours post transfection. […] Thus, phosphorylation of Ser155 rescues cells from BAD-induced apoptosis, while substitution of Ser155 with a nonphosphorylatable residue results in increased cell death and the failure of cells to be protected from induced PKA activity.
Beta-gal ELISA assays were performed using the β-gal ELISA system from Boehringer Mannheim, according to manufacture's instructions. Cells were transfected with BAD (or BAD mutant) and β-gal in a ratio of 5:1. The transfected cells were trypsinized and distributed into 96-well tissue culture plates. Twenty-four hours after transfection, cell extracts were obtained by lysing the cells in lysis buffer. Cell extracts (200 μl) were then added to anti-β-gal-coated microtiter plates (MTP). The MTPs were foil-covered and incubated for one hour at 37° C. Solutions were then decanted and the MTPs were washed, followed by the addition of 200 μl of anti-β-gal-DIG working solution, and incubation for an additional hour as described above. Solutions were again decanted, the MTPs washed and 200 μl of DIG-POD working solution were added. The MTPs were incubated for another hour at 37° C., the solution decanted, and the wells washed. 200 μl of substrate with enhancer were added to each well and incubated at room temperature until color development. The β-gal activity was measured by the absorbance of the sample at […]. Data were based on triplicate wells with standard deviations calculated.

[4] = target: GST-Bcl-XL (Homo sapiens, UniProt Q07817); assay: GST-Bcl-XL binding (glutathione bead pull-down) of BAD; details: 35S-labeled in vitro translated full-length protein incubated with PKA and ATP
Experimental: In order to test whether the additional and novel phosphorylation site on BAD has functional significance, the effect on BAD binding to Bcl-XL was examined. Recombinant Bcl-XL tagged with the glutathione S-transferase (“GST”) moiety (“GST-Bcl-XL”) was incubated with WCL prepared from COS-7 cells expressing the double mutant HA-BAD S112A/S136A, and the HA-BAD S112A/S136A that bound to the GST-Bcl-XL was precipitated with GST beads. […] No HA-BAD S112A/S136A was precipitated with GST beads from the WCL that were not incubated with GST-Bcl-XL (FIG. 1, lane 4).
The ability of full-length BAD and mutant BAD S155A to bind Bcl-XL was also determined (FIG. 3(c)). Full-length BAD (“WT”) and mutant BAD S155A (“S155A”) were produced by in vitro translation and labeled with ^35S-methionine therein. […] Proteins bound to the beads (“Bound”) (lower panel) and samples of the reactions collected prior to incubation with the beads (“Total”) (upper panel) were analyzed by SDS-PAGE followed by autoradiography.
For Bcl-XL binding studies, GST-Bcl-XL (1 mg/ml final concentration) was added to cell lysates derived from BAD expressing cells, and incubated with rotation for two hours at 4° C. […] The beads were then washed with RIPA buffer, the proteins were separated by SDS-PAGE and associated BAD detected by probing the blot with anti-HA antibody.

Chain of GST-Bcl-XL (Q07817 whole entry): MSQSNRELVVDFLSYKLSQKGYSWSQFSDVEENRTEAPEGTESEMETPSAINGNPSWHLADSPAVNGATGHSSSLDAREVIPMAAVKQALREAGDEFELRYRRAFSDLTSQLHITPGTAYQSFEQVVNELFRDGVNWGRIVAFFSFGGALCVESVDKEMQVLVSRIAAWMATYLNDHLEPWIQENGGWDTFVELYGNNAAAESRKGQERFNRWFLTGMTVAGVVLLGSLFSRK

B1: wild-type BAD: shorter murine BAD of SEQ ID NO:3 (162 aa), used untagged, HA-tagged or GST-tagged (protein, listed as Mus musculus)
chain: MFQIPEFEPSEQEDASATDRGLGPSLTEDQPGPYLAPGLLGSNIHQQGRAATNSHHGGAGAMETRSRHSSYPAGTEEDEGMEEELSPFRGRSRSAPPNLWAAQRYGRELRRMSDEFEGSFKGLPRPKSAGTATQMRQSAGWTRIIQSWWDRNLGKGGSTPSQ
modifications: optional HA or GST tag
Q: What does the source list for B1?
A: band-shift (phosphorylation) of expressed BAD construct in response to L-epinephrine [1]: significant band-shift; gel-mobility shift induced by phosphorylation by PKA [2]: induced a gel-mobility shift; more cells surviving transient expression than with the BAD S155A mutant [3]: Approximately 50%; binding to GST-Bcl-XL after phosphorylation by PKA [4]: blocked the ability of BAD to bind to Bcl-XL
